{"source": "patent US20140349871A1", "about": "(University of Washington, published 2014)", "target": "T1, prohibitin-2 (PHB2) (human, UniProt Q99623 2-299)", "T1 construct": "whole, on cells; also called BAP37", "T1 sequence (Q99623 2-299)": "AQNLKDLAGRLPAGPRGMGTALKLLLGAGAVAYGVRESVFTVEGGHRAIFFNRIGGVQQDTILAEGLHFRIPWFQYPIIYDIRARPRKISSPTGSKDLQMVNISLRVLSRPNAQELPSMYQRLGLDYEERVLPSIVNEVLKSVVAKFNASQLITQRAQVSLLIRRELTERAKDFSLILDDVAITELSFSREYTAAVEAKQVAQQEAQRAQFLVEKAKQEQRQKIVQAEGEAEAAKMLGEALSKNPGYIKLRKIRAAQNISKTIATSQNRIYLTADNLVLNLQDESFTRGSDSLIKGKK", "assay": "in vivo PIR (BDP-NHP) cross-linking of intact HeLa cells, ReACT LC-MS3"}
{"binder": "prohibitin (PHB) (other, human, UniProt P35232 2-272, looked up, whole, on cells; also called prohibitin 1; BAP32) AAKVFESIGKFGLALAVAGGVVNSALYNVDAGHRAVIFDRFRGVQDIVVGEGTHFLIPWVQKPIIFDCRSRPRNVPVITGSKDLQNVNITLRILFRPVASQLPRIFTSIGEDYDERVLPSITTEILKSVVARFDAGELITQRELVSRQVSDDLTERAATFGLILDDVSLTHLTFGKEFTEAVEAKQVAQQEAERARFVVEKAEQQKKAAIISAEGDSKAAELIANSLATAGDGLIELRKLEAAEDIAYQLSRSRNITYLPAGQSVLLQLPQ", "values": [{"measurement": "binding result", "result": "binds"}]}
